Assays:
[1] = target: full length human tau protein 2N4R (hT40) (human) (UniProt P10636); assay: Simoa sandwich, capture S1D12, biotinylated detector
[2] = target: full length human tau protein 2N4R (hT40) (human) (UniProt P10636); assay: Simoa sandwich, capture S1G2, biotinylated detector
[3] = target: full length human tau protein 2N4R (hT40) (human) (UniProt P10636); assay: Simoa sandwich, capture CB7, biotinylated detector
[4] = target: full length human tau protein 2N4R (hT40) (human) (UniProt P10636); assay: Simoa sandwich, capture Tau12, biotinylated detector
[5] = target: full length human tau protein 2N4R (hT40) (human) (UniProt P10636); assay: SPR, hT40 immobilised, mAb analyte

full length human tau protein 2N4R (hT40) (human), sequence (P10636 other isoform, or with tags, fused parts or gaps limits assumed): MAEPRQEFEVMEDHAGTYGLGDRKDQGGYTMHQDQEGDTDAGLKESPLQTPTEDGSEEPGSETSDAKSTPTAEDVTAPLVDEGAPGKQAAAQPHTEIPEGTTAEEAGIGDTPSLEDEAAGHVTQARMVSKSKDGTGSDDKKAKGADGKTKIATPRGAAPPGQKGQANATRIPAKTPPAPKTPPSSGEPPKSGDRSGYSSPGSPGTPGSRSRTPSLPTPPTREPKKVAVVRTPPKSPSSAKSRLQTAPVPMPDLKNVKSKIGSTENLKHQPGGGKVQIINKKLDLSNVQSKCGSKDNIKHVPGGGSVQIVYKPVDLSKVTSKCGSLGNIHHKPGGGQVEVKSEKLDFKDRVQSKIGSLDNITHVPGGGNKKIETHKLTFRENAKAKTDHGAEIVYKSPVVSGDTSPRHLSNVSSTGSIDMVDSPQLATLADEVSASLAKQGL

Simoa limit of detection [1] [pg/mL] | Simoa limit of detection [2] [pg/mL] | Simoa limit of detection [3] [pg/mL] | Simoa limit of detection [4] [pg/mL] | Kd [5] [nM] | Substance
0.32 | 0.32 | 2.2 | 2.2 | – | HT7 (antibody)
0.75 | 1.6 | – | – | 1.44 | Tau12 mAb (antibody)
0.32 | – | 0.75 | – | – | BT2 (antibody)
– | 2.2 | 2.2 | – | – | Tau46 (antibody)

Reference: patent publication US20250355001A1, “METHOD FOR DETECTING A TAU PROTEIN FRAGMENT IN A SAMPLE” (GTINVENT LIMITED, priority 2022, published 2025)
